Test results: paper PMC3651167

Target: wild-type rabbit PrP 121–230 (rabbit)
Assay: SEC

Chain of wild-type rabbit PrP 121–230 (domain or fragment) (Q95211 119-229 limits assumed): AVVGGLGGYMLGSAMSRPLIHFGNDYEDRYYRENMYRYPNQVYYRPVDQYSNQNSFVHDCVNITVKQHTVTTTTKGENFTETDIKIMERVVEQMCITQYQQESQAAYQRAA

wild-type rabbit PrP 121–230 (domain or fragment)
percent octamer after 4 hours: 33% | stoichiometry N: 8
